# Measurements as given in publication PMC7680125.
# System: Isw1 alone (Saccharomyces cerevisiae)
# Experiment: EMSA
# Conditions: 35 mM Na-HEPES pH 7.8, 5 mM MgCl2, 0.1 mM EGTA, 0.02 M EDTA (so in the source), 70 mM NaCl, 0.1 mg/ml BSA, 5-8% glycerol, 40 uM 2-mercaptoethanol, 30 C, 30 min …
substance,measurement,value
0N70 mononucleosome,Kd,21.9 nM
